In the assay the target is T1, human CD163, ligand-affinity purified from Triton X-100 solubilised human spleen, placenta and liver membranes (human, UniProt Q86VB7 42-1156).
T1 construct: mature; Natural receptor purified from tissue membranes on Hp-Hb Sepharose; immobilised on BIAcore CM5 chips or in microtiter wells; also called HbSR; Hp-Hb receptor
The assay can be described thus: SPR, CD163 immobilised on CM5 chip. (In general: SPR reads the build-up and loss of mass on a sensor chip optically.)

T1 sequence (Q86VB7 42-1156): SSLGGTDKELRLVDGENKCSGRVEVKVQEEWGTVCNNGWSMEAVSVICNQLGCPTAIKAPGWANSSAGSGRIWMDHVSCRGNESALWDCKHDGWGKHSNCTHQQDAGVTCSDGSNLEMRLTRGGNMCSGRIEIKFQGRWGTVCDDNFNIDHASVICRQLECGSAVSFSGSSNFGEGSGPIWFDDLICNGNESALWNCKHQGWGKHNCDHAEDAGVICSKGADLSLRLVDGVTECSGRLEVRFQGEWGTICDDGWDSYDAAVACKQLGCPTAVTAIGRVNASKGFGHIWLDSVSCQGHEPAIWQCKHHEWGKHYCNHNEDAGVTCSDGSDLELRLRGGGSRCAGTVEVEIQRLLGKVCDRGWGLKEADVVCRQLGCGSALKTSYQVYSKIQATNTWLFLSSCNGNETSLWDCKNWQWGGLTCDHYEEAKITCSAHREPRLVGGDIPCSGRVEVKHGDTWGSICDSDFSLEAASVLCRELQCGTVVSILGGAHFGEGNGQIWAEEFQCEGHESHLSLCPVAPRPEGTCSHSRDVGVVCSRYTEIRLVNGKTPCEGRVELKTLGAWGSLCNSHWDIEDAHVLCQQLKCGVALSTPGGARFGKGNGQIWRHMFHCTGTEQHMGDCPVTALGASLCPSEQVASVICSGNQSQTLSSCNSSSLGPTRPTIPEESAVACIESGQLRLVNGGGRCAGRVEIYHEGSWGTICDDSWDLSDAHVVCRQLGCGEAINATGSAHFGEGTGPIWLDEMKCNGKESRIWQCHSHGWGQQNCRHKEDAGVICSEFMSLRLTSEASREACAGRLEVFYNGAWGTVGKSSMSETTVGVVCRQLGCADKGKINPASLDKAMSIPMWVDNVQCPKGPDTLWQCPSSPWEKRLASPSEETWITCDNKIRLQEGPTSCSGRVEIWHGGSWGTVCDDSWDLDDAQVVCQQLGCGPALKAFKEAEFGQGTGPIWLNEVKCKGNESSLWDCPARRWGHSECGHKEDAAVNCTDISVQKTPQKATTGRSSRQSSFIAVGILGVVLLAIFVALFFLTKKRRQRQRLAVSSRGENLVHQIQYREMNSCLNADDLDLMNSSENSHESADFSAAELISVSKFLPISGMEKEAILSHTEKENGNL
Procedure: Purified CD163 was immobilised at the BIAcore sensor CM5 chip (BIAcore AB) at a concentration of up to 50 μg/ml in 10 mM sodium acetate, pH 4.0, and the remaining binding sites were blocked with 1 M ethanolamine pH 8.5. The surface plasmon resonance signal generated from immobilised CD163 corresponded to 55-66 fmol receptor/mm². The sample and flow buffer was 10 mM Hepes, 150 mM NaCl, 0.5 mM CaCl₂, pH 7.4. The sensor chips were regenerated with 1.6 M glycine-HCl, pH 3.

B1: human haptoglobin Hp(2-2), non-complexed (other, UniProt P00738 19-406, looked up)
chain: VDSGNDVTDIADDGCPKPPEIAHGYVEHSVRYQCKNYYKLRTEGDGVYTLNDKKQWINKAVGDKLPECEADDGCPKPPEIAHGYVEHSVRYQCKNYYKLRTEGDGVYTLNNEKQWINKAVGDKLPECEAVCGKPKNPANPVQRILGGHLDAKGSFPWQAKMVSHHNLTTGATLINEQWLLTTAKNLFLNHSENATAKDIAPTLTLYVGKKQLVEIEKVVLHPNYSQVDIGLIKLKQKVSVNERVMPICLPSKDYAEVGRVGYVSGWGRNANFKFTDHLKYVMLPVADQDQCIRHYEGSTVPEKKTPKSPVGVQPILNEHTFCAGMSKYQEDTCYGDAGSAFAVHDLEEDTWYATGILSFDKSCAVAEYGVYVKVTSIQDWVQKTIAEN
notes: mature; From Sigma; mixture of multimers; also called Hp(2-2) multimers
For the molecule B1, the binding result is given as “no binding (tested: 50 µg/ml Hp(2-2))”.

The record behind these values is patent US20020155995A1 (published 2002).
